Earlier results on three substances are cited in article PMC10130511.

The target of data set [1] is IP3R (UniProt P29994).
Data set [2] has as its target IP3R (UniProt P29994). The source holds these as a separate data set.
Data set [3] deals with IP3R (UniProt P29994). The source holds these as a separate data set.

Where two headings read alike, the source gives them in different places.

Chain of UniProt P29994 (P29994 whole entry): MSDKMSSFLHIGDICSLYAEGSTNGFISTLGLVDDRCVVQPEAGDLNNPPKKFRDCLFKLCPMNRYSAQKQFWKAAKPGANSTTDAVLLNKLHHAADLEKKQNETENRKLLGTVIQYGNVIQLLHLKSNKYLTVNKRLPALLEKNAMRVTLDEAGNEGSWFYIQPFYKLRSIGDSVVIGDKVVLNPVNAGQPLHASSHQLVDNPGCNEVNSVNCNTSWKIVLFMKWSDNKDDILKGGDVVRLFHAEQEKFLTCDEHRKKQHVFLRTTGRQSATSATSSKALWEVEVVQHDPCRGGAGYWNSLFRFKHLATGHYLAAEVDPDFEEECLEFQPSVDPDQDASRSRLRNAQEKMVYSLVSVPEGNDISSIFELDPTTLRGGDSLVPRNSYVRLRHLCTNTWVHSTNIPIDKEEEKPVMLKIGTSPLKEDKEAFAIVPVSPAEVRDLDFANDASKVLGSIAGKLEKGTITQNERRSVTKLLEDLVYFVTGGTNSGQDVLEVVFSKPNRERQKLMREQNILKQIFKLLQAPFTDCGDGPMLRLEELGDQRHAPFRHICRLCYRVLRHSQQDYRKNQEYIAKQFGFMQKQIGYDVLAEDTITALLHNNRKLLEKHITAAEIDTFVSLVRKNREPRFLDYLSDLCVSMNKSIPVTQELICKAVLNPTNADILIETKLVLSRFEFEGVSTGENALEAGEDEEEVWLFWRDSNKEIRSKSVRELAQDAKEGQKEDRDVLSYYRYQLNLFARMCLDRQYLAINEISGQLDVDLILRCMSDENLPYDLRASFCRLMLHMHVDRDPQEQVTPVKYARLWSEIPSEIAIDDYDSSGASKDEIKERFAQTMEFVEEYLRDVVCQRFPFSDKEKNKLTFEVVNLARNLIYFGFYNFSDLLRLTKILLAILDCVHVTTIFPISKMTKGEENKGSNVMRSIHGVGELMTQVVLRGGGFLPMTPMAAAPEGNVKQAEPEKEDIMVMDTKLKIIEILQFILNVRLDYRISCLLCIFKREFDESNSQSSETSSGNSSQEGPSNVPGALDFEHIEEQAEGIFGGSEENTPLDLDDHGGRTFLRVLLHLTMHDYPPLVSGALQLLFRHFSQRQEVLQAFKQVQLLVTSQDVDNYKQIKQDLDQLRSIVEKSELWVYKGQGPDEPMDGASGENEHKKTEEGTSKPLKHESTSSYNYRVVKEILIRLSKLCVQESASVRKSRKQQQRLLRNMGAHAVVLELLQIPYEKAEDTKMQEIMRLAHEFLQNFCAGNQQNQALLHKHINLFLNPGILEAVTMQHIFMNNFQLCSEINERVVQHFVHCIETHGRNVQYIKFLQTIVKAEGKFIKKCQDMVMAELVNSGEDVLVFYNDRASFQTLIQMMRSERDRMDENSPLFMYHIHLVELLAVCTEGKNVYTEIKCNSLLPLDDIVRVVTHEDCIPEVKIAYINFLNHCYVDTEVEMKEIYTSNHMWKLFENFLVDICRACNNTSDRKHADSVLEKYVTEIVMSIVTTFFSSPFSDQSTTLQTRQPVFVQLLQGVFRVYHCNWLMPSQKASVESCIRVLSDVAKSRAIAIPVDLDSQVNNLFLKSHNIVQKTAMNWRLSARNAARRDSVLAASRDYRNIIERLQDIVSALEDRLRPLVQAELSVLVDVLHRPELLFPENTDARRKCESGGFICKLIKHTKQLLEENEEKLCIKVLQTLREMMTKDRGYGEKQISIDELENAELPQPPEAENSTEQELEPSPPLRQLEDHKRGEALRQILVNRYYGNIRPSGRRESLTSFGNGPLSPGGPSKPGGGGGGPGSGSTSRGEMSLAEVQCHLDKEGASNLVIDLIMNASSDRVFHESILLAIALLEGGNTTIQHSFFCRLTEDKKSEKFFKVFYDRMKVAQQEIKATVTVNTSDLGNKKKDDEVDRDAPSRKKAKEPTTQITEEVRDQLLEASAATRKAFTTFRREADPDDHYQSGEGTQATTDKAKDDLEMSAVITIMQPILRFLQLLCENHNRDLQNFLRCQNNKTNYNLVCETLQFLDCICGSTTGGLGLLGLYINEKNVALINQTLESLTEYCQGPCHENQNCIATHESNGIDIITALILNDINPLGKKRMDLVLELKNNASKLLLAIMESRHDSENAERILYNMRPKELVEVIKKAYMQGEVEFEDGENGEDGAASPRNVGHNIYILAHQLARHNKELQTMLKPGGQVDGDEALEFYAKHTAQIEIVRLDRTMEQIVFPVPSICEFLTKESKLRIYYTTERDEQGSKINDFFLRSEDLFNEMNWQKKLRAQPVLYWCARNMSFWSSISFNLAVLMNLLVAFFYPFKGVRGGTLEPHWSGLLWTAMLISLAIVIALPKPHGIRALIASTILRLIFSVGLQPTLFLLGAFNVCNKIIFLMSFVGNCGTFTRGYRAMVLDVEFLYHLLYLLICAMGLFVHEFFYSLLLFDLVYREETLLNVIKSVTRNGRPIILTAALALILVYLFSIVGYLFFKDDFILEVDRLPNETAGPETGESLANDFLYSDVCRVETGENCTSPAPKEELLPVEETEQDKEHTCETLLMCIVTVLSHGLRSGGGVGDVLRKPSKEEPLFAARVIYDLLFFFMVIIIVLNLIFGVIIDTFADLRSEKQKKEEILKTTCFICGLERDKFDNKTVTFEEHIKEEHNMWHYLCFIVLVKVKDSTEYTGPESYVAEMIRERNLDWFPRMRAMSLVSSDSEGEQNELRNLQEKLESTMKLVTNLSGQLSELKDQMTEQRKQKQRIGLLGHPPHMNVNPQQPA

Consider Bcl-2 (from UniProt P10415), for which the dissociation constant Kd in the data set with IP3R [1] is 1000 nM. As for Bcl-xL (from UniProt Q07817), in the data set with IP3R [2], the equilibrium dissociation constant (Kd) was 700 nM. With Bok (from UniProt Q9UMX3), the Kd in the data set with IP3R [3] is 65 nM.
